Where no end group is shown, it is not given here. [ ]: non-standard residue; d: D form. Met(O) = CS(=O)CC[C@H](N)C(=O)O

Assay [1] concerns the target human GPR8 (human, UniProt P48146 1-333). As to the kind of experiment: cell-based or functional assay.
Assay [2] addresses T1, human GPR7 (human, UniProt P48145 1-328).
T1 sequence: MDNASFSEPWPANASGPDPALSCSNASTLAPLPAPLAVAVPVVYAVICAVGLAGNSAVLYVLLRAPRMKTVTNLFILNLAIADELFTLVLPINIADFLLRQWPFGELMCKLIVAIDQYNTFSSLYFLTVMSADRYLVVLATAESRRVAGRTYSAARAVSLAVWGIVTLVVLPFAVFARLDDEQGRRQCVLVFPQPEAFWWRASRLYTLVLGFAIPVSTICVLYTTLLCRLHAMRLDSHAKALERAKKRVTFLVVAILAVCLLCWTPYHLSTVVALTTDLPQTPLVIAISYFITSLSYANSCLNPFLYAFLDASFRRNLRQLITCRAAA
As to the kind of experiment: cell-based or functional assay.

Assay [3] deals with T1, human GPR7. As to the kind of experiment: cell-based or functional assay. The source holds these as a separate data set.
Assay [4] addresses T1, human GPR7. As to the kind of experiment: competition with [125I-Tyr10]-hGPR8L (1-23) as tracer, membrane fraction of human GPR7-expressing CHO cells. Here is the method:
The thus prepared cell membrane fraction was diluted in various concentrations with an assay buffer (25 mM Tris-HCl, 5 mM EDTA, 0.05% CHAPS (3-[(3-choramidopropyl)dimethylammonio]-1-propanesulfonate), 0.1% BSA, 0.5 mM PMSF, 1 μg/ml pepstatin, 20 μg/ml leupeptin and 4 μg/ml E-64, pH 7.4). Then, a 200 μl aliquot of the dilution was dispensed into a propylene-made testing tube (Falcon 2053). In order to assay for the total binding, 2 μl of DMSO and 2 μl of 8 nM [¹²⁵I-Tyr¹⁰]-hGPR8L (1-23) was added to the membrane fraction solution. Also, the non-specific binding was assayed by adding 2 μl of a DMSO solution of 1 mM hGPR8L (1-23) and 2 μl of 8 nM [¹²⁵I-Tyr¹⁰]-hGPR8L (1-23) to the membrane fraction solution. After reacting at 25° C. for 75 minutes, the reaction solution was suction-filtrated through a polyethyleneimine-treated Whatman glass filter (GF-F), and the filter was washed twice with ˜1.5 ml of a wash buffer (25 mM Tris-HCl, 5 mM EDTA, 0.05% CHAPS, 0.1% BSA, pH 7.4). After the filtration, the residual radioactivity remained on the filter paper was measured with a γ-counter, and the specific binding was estimated by subtracting the non-specific binding from the total binding.
It could also be verified that the binding inhibition of [¹²⁵I-Tyr¹⁰]-hGPR8L (1-23) against the human GPR7-expressed CHO cell membrane fraction was noted as described above, when rat and mouse homologs (SEQ ID NO:73 and SEQ ID NO:91) to hGPR8L (1-23) and porcine, rat and mouse homologs (SEQ ID NO:57, SEQ ID NO:74 and SEQ ID NO:92) to hGPR8L (1-30).

Sequence of human GPR8 (P48146 whole entry): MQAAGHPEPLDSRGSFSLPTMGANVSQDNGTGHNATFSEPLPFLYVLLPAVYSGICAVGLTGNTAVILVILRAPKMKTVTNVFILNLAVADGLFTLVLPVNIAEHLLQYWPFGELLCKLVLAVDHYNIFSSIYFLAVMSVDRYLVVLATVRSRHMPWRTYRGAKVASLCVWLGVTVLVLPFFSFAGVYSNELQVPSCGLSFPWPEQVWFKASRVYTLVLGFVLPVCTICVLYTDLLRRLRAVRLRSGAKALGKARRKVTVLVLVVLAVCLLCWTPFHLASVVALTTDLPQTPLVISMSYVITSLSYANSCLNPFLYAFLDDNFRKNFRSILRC

XYKHVASPRYHTVGRAAGLLMGL (D-Trp at position 1) [[D-Trp1]-human GPR8 ligand (1-23)]: in assay [1], the “GTPγ S binding promoting activity (EC50 nM)” value worked out at 7.1 nM. Besides, the “GTPγS-Binding promoting activity (EC50 nM)” value in assay [2] was determined as 2.3 nM.
Regarding RYHTVGRAAGLLMGL [human GPR8 ligand (9-23)], the “GTPγ S binding promoting activity (EC50 nM)” value in assay [1] was 4200 nM. Besides, the “GTPγS-Binding promoting activity (EC50 nM)” value in assay [2] was over 10000 nM.
XYKHVASPRYHTVGRAAGLLMGL (N-terminal Fmoc (N-9-fluorenylmethoxycarbonyl) on Trp1) [Fmoc-human GPR8 ligand (1-23)]: the “GTPγ S binding promoting activity (EC50 nM)” value in assay [1] is 240 nM. Also, in assay [2], the “GTPγS-Binding promoting activity (EC50 nM)” value was 6.6 nM.
For the molecule WYKHVASPRYHTVGRAAGL [human GPR8 ligand (1-19)], the “GTPγ S binding promoting activity (EC50 nM)” value in assay [1] was 1000 nM. For the same molecule, the “GTPγS-Binding promoting activity (EC50 nM)” value in assay [2] came to 84 nM.
Take WYKHVASPRYHTVGRAAGLLMGL [human GPR8 ligand (1-23)]: the “intracellular cAMP production suppressing activity (IC50)” value in assay [3] was determined as 0.025 nM. Besides, the “GTPγS-Binding promoting activity (EC50 nM)” value in assay [2] came out at 0.74 nM.
With WYKHVASPRYHTVGRAAGLLMGLRRSPYLW [human GPR8 ligand (1-30)], the “GTPγS-Binding promoting activity (EC50 nM)” value in assay [2] came out at 0.67 nM.

B1: rat homolog to hGPR8L (1-30) (peptide)
peptide: WYKHVASPRYHTVGRASGLLMGLRRSPYLW
notes: also called rat homologue of the GPR8 ligand peptide (30 residues)
For B1, in assay [4], the binding result was “binds”.

B2: mouse homolog to hGPR8L (1-30) (peptide)
peptide: WYKHVASPRYHTVGRASGLLMGLRRSPYQW
notes: also called mouse homologue of the GPR8 ligand peptide (30 residues)
With B2, the binding result in assay [4] is “binds”.

B3: porcine homolog to hGPR8L (1-30) (peptide)
peptide: WYKHTASPRYHTVGRAAGLLMGLRRSPYMW
notes: also called porcine homologue of the GPR8 ligand peptide (30 residues)
Take B3: in assay [4], the binding result is given as “binds”.
Take {3‑indolepropanoyl}-YKHVASPRYHTVGRAAGLLMGL [[N-3-Indolepropanyl-Tyr2]-human GPR8 ligand (2-23)]: in assay [1], the “GTPγ S binding promoting activity (EC50 nM)” value was determined as 5 nM. Besides, the “GTPγS-Binding promoting activity (EC50 nM)” value in assay [2] was 0.85 nM.
Consider XYKHVASPRYHTVGRAAGLLMGL (Nα-acetyl on Trp1) [[Nα-Acetyl-Trp1]-human GPR8 ligand (1-23)], for which, in assay [1], the “GTPγ S binding promoting activity (EC50 nM)” value was found to be 14 nM. Further, the “GTPγS-Binding promoting activity (EC50 nM)” value in assay [2] was determined as 1.5 nM.
For the molecule WYKHVASPRYHTVGRAAG [human GPR8 ligand (1-18)], the “GTPγ S binding promoting activity (EC50 nM)” value in assay [1] is over 10000 nM. Also, the “GTPγS-Binding promoting activity (EC50 nM)” value in assay [2] was 6200 nM.
As to YKHVASPRYHTVGRAAGLLMGL [human GPR8 ligand (2-23)], in assay [1], the “GTPγ S binding promoting activity (EC50 nM)” value came out at 3900 nM. The “GTPγS-Binding promoting activity (EC50 nM)” value in assay [2] turned out to be 7410 nM.
Regarding HVASPRYHTVGRAAGLLMGL [human GPR8 ligand (4-23)], the “GTPγ S binding promoting activity (EC50 nM)” value in assay [1] stood at 6700 nM. Further, the “GTPγS-Binding promoting activity (EC50 nM)” value in assay [2] is over 10000 nM.
WYKHVASPRYHTVGRAAGLL [human GPR8 ligand (1-20)]: the “GTPγ S binding promoting activity (EC50 nM)” value in assay [1] amounted to 0.86 nM. In assay [2], the “GTPγS-Binding promoting activity (EC50 nM)” value was 0.88 nM.
On to Ac-YKHVASPRYHTVGRAAGLLMGL [[N-Acetyl-Tyr2]-human GPR8 ligand (2-23)], for which, in assay [1], the “GTPγ S binding promoting activity (EC50 nM)” value amounted to 7200 nM. The “GTPγS-Binding promoting activity (EC50 nM)” value in assay [2] is 7000 nM.

B4: mouse GPR8 ligand (1-23) (peptide)
peptide: WYKHVASPRYHTVGRASGLLMGL
notes: also called mouse homolog to hGPR8L (1-23)
As to B4, the binding result in assay [4] is reported as “binds”.
For the molecule WYKHTASPRYHTVGRAAGLLMGL [porcine GPR8 ligand (1-23)], in assay [1], the “GTPγ S binding promoting activity (EC50 nM)” value turned out to be 1.5 nM. Besides, the “GTPγS-Binding promoting activity (EC50 nM)” value in assay [2] was 0.35 nM.

B5: rat GPR8 ligand (1-23) (peptide)
peptide: WYKHVASPRYHTVGRASGLLMGL
notes: also called rat homolog to hGPR8L (1-23)
B5: in assay [4], the binding result is reported as “binds”.
Regarding WYKHVASPRYHTVGRAAGLLXGL (Met (O) (methionine sulfoxide) at position 21) [oxidized human GPR8 ligand (1-23)], the “GTPγ S binding promoting activity (EC50 nM)” value in assay [1] amounted to 1.4 nM. Also, in assay [2], the “GTPγS-Binding promoting activity (EC50 nM)” value worked out at 1.6 nM.
For WYKHTASPRYHTVGRAAGLL[Met(O)]GL [oxidized porcine GPR8 ligand (1-23)], the “GTPγ S binding promoting activity (EC50 nM)” value in assay [1] was determined as 0.73 nM. Further, the “GTPγS-Binding promoting activity (EC50 nM)” value in assay [2] stood at 1.2 nM.

(Values after patent publication US20040110231A1 (Takeda / Millennium, published 2004).)
